The values that follow are results of earlier work, collected in PMC12537681.

pKd: −log10 of the molar value.

In this data set the target is Spike glycoprotein trimer (Severe acute respiratory syndrome coronavirus 2) (UniProt P0DTC2).

Turning to TLR4 (from UniProt O00206), the pKd is 6.52.
